Experimental findings from the supplement of paper PMC7125110 are described below.

The labels stand for the following.
B1: glmS ribozyme (parent)
chain: AUAAAAGCGCCAGAACUACAGAAAUGUAGUUGACGAGGAGGAGGUUUAUCGAAUUUUCGGCGGAUGCCUCCAAA

Holding throughout (details): with glucosamine-6-phosphate
The variants in data set [1] derive from B1. As to the kind of experiment: kcat; higher = faster cleavage; RNA array. A digest of the protocol: (§1)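 Barcoded glmS ribozyme variants on sequenced MiSeq chips were transcribed in situ by E. coli RNA polymerase and tracked through a hybridised Cy3 probe at 37 °C. Glucosamine-6-phosphate (40 μM to 10 mM) in HEPES/KCl/Mg(OAc)2 buffer was flowed in, and tiles were imaged over ~14 h. Signals were normalised to baseline and to non-cleaving reference variants; per-tile medians were fit to one- or two-exponential decays to give kobs. kcat and KM came from weighted Michaelis–Menten fits across concentrations.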

The variants in data set [2] derive from B1. As to the kind of experiment: self-cleavage kobs at 2500 uM GlcN6P; higher = faster cleavage; RNA array. In short, it runs like this: as §1
In data set [3] the parent is B1. As to the kind of experiment: self-cleavage kobs at 10000 uM GlcN6P; higher = faster cleavage; RNA array. In short, it runs like this:
as §1

Variants of B1 are the subject of data set [4]. The data set is described as follows: self-cleavage kobs at 640 uM GlcN6P; higher = faster cleavage; RNA array. A digest of the protocol:
as §1

In data set [5] the parent is B1. The data set is described as follows: KM; higher = weaker cofactor use; RNA array. A digest of the protocol:
as §1

In data set [6] the parent is B1. As to the kind of experiment: self-cleavage kobs at 40 uM GlcN6P; higher = faster cleavage; RNA array. In short, it runs like this:
as §1

In data set [7] the parent is B1. The data set is described as follows: self-cleavage kobs at 160 uM GlcN6P; higher = faster cleavage; RNA array. A digest of the protocol:
as §1

± gives the standard error. For part of these data: Variants at the floor of the assay were thinned out.

On to G29U U65C, for which the catalytic constant (kcat) in the data set with glucosamine-6-phosphate [1] came out at 6.8e-05 ± 1.9e-05 s⁻¹. Besides, the “self-cleavage kobs at 2500 uM GlcN6P” value with glucosamine-6-phosphate [2] worked out at 6.54e-05 ± 1.3e-05 s⁻¹. Moreover, in the data set with glucosamine-6-phosphate [3], the “self-cleavage kobs at 10000 uM GlcN6P” value came to 5.46e-05 ± 1.2e-05 s⁻¹.
G44A U56G: in the data set with glucosamine-6-phosphate [1], the kcat was determined as 0.000224 ± 3.2e-05 s⁻¹. Further, the “self-cleavage kobs at 640 uM GlcN6P” value with glucosamine-6-phosphate [4] amounted to 5.52e-05 ± 2.2e-05 s⁻¹. Besides, the “self-cleavage kobs at 2500 uM GlcN6P” value in the data set with glucosamine-6-phosphate [2] came to 0.000188 ± 3.9e-05 s⁻¹. For the same variant, the “self-cleavage kobs at 10000 uM GlcN6P” value with glucosamine-6-phosphate [3] is 0.00019 ± 2.1e-05 s⁻¹.
A14G G43U U46G: the catalytic constant (kcat) in the data set with glucosamine-6-phosphate [1] is 3.09e-05 ± 3.5e-06 s⁻¹. The KM with glucosamine-6-phosphate [5] came to 1610 ± 590 µM. Further, the “self-cleavage kobs at 40 uM GlcN6P” value with glucosamine-6-phosphate [6] was below 1e-05 s⁻¹.
Turning to G35U A53U, the kcat in the data set with glucosamine-6-phosphate [1] was below 1e-05 s⁻¹. For the same variant, the “self-cleavage kobs at 640 uM GlcN6P” value with glucosamine-6-phosphate [4] was below 1e-05 s⁻¹.
C16G G29U U54A: the catalytic constant (kcat) in the data set with glucosamine-6-phosphate [1] was determined as 0.024 ± 0.011 s⁻¹. For the same variant, the “self-cleavage kobs at 40 uM GlcN6P” value with glucosamine-6-phosphate [6] is 0.000213 ± 4.2e-05 s⁻¹. Further, the “self-cleavage kobs at 160 uM GlcN6P” value with glucosamine-6-phosphate [7] is 0.000446 ± 0.00014 s⁻¹. In the data set with glucosamine-6-phosphate [4], the “self-cleavage kobs at 640 uM GlcN6P” value turned out to be 0.00332 ± 0.00054 s⁻¹. For the same variant, in the data set with glucosamine-6-phosphate [2], the “self-cleavage kobs at 2500 uM GlcN6P” value came out at 0.0157 ± 0.0041 s⁻¹. In addition, in the data set with glucosamine-6-phosphate [3], the “self-cleavage kobs at 10000 uM GlcN6P” value was determined as 0.0148 ± 0.0026 s⁻¹.
As to G13C U69A, the kcat with glucosamine-6-phosphate [1] came to 2.51e-05 ± 9.3e-06 s⁻¹. Further, the “self-cleavage kobs at 640 uM GlcN6P” value in the data set with glucosamine-6-phosphate [4] came to 4.85e-05 ± 2.3e-05 s⁻¹.
In the case of G21U, the kcat with glucosamine-6-phosphate [1] was 0.0659 ± 0.016 s⁻¹. Further, the KM with glucosamine-6-phosphate [5] is 2090 ± 600 µM. The “self-cleavage kobs at 40 uM GlcN6P” value in the data set with glucosamine-6-phosphate [6] turned out to be 0.00136 ± 8.6e-05 s⁻¹. Moreover, in the data set with glucosamine-6-phosphate [7], the “self-cleavage kobs at 160 uM GlcN6P” value was 0.00351 ± 0.00055 s⁻¹. For the same variant, in the data set with glucosamine-6-phosphate [4], the “self-cleavage kobs at 640 uM GlcN6P” value was determined as 0.0147 ± 0.0015 s⁻¹. The “self-cleavage kobs at 2500 uM GlcN6P” value with glucosamine-6-phosphate [2] was 0.0337 ± 0.0063 s⁻¹. In addition, the “self-cleavage kobs at 10000 uM GlcN6P” value with glucosamine-6-phosphate [3] worked out at 0.059 ± 0.0083 s⁻¹.
Turning to G32U C50G C71G, the catalytic constant (kcat) in the data set with glucosamine-6-phosphate [1] came out at 0.000195 ± 2.4e-05 s⁻¹. Also, the “self-cleavage kobs at 40 uM GlcN6P” value with glucosamine-6-phosphate [6] was determined as 0.000189 ± 5.1e-05 s⁻¹. The “self-cleavage kobs at 640 uM GlcN6P” value with glucosamine-6-phosphate [4] came out at 0.000151 ± 6.3e-05 s⁻¹. The “self-cleavage kobs at 2500 uM GlcN6P” value with glucosamine-6-phosphate [2] is 0.000194 ± 6.4e-05 s⁻¹. Besides, the “self-cleavage kobs at 10000 uM GlcN6P” value with glucosamine-6-phosphate [3] is 0.000231 ± 5.8e-05 s⁻¹.
Regarding A15U C61A, the kcat with glucosamine-6-phosphate [1] was below 1e-05 s⁻¹. Further, in the data set with glucosamine-6-phosphate [5], the KM was found to be 829 ± 70 µM. For the same variant, the “self-cleavage kobs at 40 uM GlcN6P” value in the data set with glucosamine-6-phosphate [6] was below 1e-05 s⁻¹.
As for A6U G29A, the turnover number (kcat) with glucosamine-6-phosphate [1] is 3.18e-05 ± 3.2e-06 s⁻¹. The “self-cleavage kobs at 40 uM GlcN6P” value with glucosamine-6-phosphate [6] was below 1e-05 s⁻¹. For the same variant, the “self-cleavage kobs at 2500 uM GlcN6P” value with glucosamine-6-phosphate [2] turned out to be 2.95e-05 ± 1.3e-05 s⁻¹. Also, the “self-cleavage kobs at 10000 uM GlcN6P” value with glucosamine-6-phosphate [3] turned out to be 2.9e-05 ± 9.8e-06 s⁻¹.
As for A36C C50G G51A, the catalytic constant (kcat) with glucosamine-6-phosphate [1] was below 1e-05 s⁻¹. Further, in the data set with glucosamine-6-phosphate [7], the “self-cleavage kobs at 160 uM GlcN6P” value is below 1e-05 s⁻¹.
Turning to A48U U65A, the kcat in the data set with glucosamine-6-phosphate [1] came to 5.33e-05 ± 4.6e-06 s⁻¹. Moreover, in the data set with glucosamine-6-phosphate [7], the “self-cleavage kobs at 160 uM GlcN6P” value is below 1e-05 s⁻¹.
For A14G A15U G40U, the kcat in the data set with glucosamine-6-phosphate [1] turned out to be 0.00322 ± 0.00023 s⁻¹. The KM with glucosamine-6-phosphate [5] was 690 ± 78 µM. For the same variant, in the data set with glucosamine-6-phosphate [6], the “self-cleavage kobs at 40 uM GlcN6P” value amounted to 0.00018 ± 3.4e-05 s⁻¹. In addition, the “self-cleavage kobs at 640 uM GlcN6P” value with glucosamine-6-phosphate [4] was determined as 0.00146 ± 0.00029 s⁻¹. In the data set with glucosamine-6-phosphate [2], the “self-cleavage kobs at 2500 uM GlcN6P” value was 0.00279 ± 0.0008 s⁻¹. Further, in the data set with glucosamine-6-phosphate [3], the “self-cleavage kobs at 10000 uM GlcN6P” value amounted to 0.00298 ± 0.00083 s⁻¹.
A12C G37U: the turnover number (kcat) in the data set with glucosamine-6-phosphate [1] is below 1e-05 s⁻¹. Moreover, the “self-cleavage kobs at 40 uM GlcN6P” value with glucosamine-6-phosphate [6] was below 1e-05 s⁻¹.
U45G: the turnover number (kcat) with glucosamine-6-phosphate [1] worked out at 0.011 ± 0.0012 s⁻¹. For the same variant, the KM in the data set with glucosamine-6-phosphate [5] was 2240 ± 300 µM. Also, the “self-cleavage kobs at 40 uM GlcN6P” value with glucosamine-6-phosphate [6] was found to be 0.000203 ± 3.8e-06 s⁻¹. The “self-cleavage kobs at 160 uM GlcN6P” value with glucosamine-6-phosphate [7] is 0.000679 ± 2.9e-05 s⁻¹. For the same variant, the “self-cleavage kobs at 640 uM GlcN6P” value with glucosamine-6-phosphate [4] came out at 0.00227 ± 5.8e-05 s⁻¹. In the data set with glucosamine-6-phosphate [2], the “self-cleavage kobs at 2500 uM GlcN6P” value came out at 0.00566 ± 0.00017 s⁻¹. In addition, in the data set with glucosamine-6-phosphate [3], the “self-cleavage kobs at 10000 uM GlcN6P” value came out at 0.00968 ± 0.00036 s⁻¹.
U45G A53G: the kcat with glucosamine-6-phosphate [1] came out at 0.0084 ± 0.0028 s⁻¹. In the data set with glucosamine-6-phosphate [5], the Michaelis-Menten constant (KM) came to 2020 ± 990 µM. In addition, the “self-cleavage kobs at 40 uM GlcN6P” value with glucosamine-6-phosphate [6] was determined as 0.000258 ± 4.3e-05 s⁻¹. Further, the “self-cleavage kobs at 160 uM GlcN6P” value in the data set with glucosamine-6-phosphate [7] stood at 0.000367 ± 0.00012 s⁻¹. In addition, the “self-cleavage kobs at 640 uM GlcN6P” value in the data set with glucosamine-6-phosphate [4] was determined as 0.00204 ± 0.00042 s⁻¹. The “self-cleavage kobs at 2500 uM GlcN6P” value with glucosamine-6-phosphate [2] is 0.00535 ± 0.0012 s⁻¹. The “self-cleavage kobs at 10000 uM GlcN6P” value in the data set with glucosamine-6-phosphate [3] stood at 0.00681 ± 0.0011 s⁻¹.
Turning to A53C U54C, in the data set with glucosamine-6-phosphate [1], the kcat stood at 0.00131 ± 0.00043 s⁻¹. The Michaelis constant (KM) in the data set with glucosamine-6-phosphate [5] stood at 1870 ± 890 µM. The “self-cleavage kobs at 40 uM GlcN6P” value with glucosamine-6-phosphate [6] came to 2.24e-05 ± 9.7e-06 s⁻¹. Further, in the data set with glucosamine-6-phosphate [7], the “self-cleavage kobs at 160 uM GlcN6P” value is 9.33e-05 ± 1.9e-05 s⁻¹. Also, in the data set with glucosamine-6-phosphate [4], the “self-cleavage kobs at 640 uM GlcN6P” value is 0.000355 ± 6.3e-05 s⁻¹. For the same variant, the “self-cleavage kobs at 2500 uM GlcN6P” value in the data set with glucosamine-6-phosphate [2] is 0.0011 ± 0.00018 s⁻¹. Moreover, the “self-cleavage kobs at 10000 uM GlcN6P” value with glucosamine-6-phosphate [3] was 0.000805 ± 0.00023 s⁻¹.
